Measured values reported in US20210292396A1.

How the values were obtained:
Test in all cases: cell-based or functional assay
[1] = biological target: HIV Env of isolate WITO.33 (HIV)
[2] = biological target: HIV Env of isolate 16845-2.22 (HIV)
[3] = biological target: Env of HIV isolate 6540.v4.c1 (clade AC) (HIV)
[4] = biological target: HIV Env of isolate QH0515.01 (HIV)
[5] = biological target: Env of HIV isolate UG024.2 (clade D) (HIV)
[6] = biological target: Env of HIV isolate DU151.02 (clade C) (HIV)
[7] = biological target: Env of HIV isolate CNE31 (clade C) (HIV)
[8] = biological target: HIV Env of isolate BS208.B1 (HIV)
[9] = biological target: Env of HIV isolate QH0515.01 (clade B) (HIV)
[10] = biological target: HIV Env of isolate CNE20 (HIV)
[11] = biological target: Env of HIV isolate 3301.v1.c24 (clade AC) (HIV)
[12] = biological target: HIV Env of isolate X1632.S2.B10 (HIV)
[13] = biological target: HIV Env of isolate BJOX009000.02.4 (HIV)
[14] = biological target: HIV Env of isolate 001428-2.42 (HIV)
[15] = biological target: HIV Env of isolate CNE15 (HIV)
[16] = biological target: HIV Env of isolate Q842.d12 (HIV)
[17] = biological target: HIV Env of isolate DJ263.8 (HIV)
[18] = biological target: HIV Env of isolate UG024.2 (HIV)
[19] = biological target: Env of HIV isolate 269-12 (clade AG) (HIV)
[20] = biological target: HIV Env of isolate MB201.A1 (HIV)
[21] = biological target: Env of HIV isolate UG021.16 (clade D) (HIV)
[22] = biological target: Env of HIV isolate SO18.18 (clade C) (HIV)
[23] = biological target: HIV Env of isolate C2101.c1 (HIV)
[24] = biological target: Env of HIV isolate JRCSF.JB (clade B) (HIV)
[25] = biological target: Env of HIV isolate 6471.v1.c16 (clade C) (HIV)
[26] = biological target: HIV Env of isolate 3365.v2.c20 (HIV)
[27] = biological target: HIV Env of isolate JRCSF.JB (HIV) (UniProt P20871)
HIV Env of isolate JRCSF.JB (HIV), sequence (P20871 32-848 limits assumed): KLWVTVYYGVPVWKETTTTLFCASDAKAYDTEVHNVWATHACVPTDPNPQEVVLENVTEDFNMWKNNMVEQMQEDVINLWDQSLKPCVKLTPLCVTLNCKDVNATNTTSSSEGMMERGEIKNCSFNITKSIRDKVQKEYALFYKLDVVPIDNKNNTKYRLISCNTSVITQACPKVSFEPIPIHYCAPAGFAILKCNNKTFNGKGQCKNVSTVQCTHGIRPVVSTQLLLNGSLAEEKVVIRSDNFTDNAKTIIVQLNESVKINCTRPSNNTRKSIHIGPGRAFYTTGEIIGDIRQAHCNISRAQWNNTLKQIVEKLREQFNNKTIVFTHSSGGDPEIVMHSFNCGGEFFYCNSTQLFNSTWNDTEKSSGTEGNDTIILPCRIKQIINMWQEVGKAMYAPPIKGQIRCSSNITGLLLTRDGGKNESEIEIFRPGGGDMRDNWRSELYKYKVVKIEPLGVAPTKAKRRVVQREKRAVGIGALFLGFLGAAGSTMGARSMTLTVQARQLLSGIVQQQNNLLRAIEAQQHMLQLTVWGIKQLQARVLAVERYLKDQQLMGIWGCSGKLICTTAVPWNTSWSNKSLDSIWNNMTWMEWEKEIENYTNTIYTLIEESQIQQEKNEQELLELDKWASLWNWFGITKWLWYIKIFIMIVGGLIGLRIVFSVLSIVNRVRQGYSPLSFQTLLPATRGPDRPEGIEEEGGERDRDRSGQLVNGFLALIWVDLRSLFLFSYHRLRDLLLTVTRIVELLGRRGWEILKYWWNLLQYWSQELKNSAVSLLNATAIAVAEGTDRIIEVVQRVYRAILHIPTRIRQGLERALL

[28] = biological target: HIV Env of isolate 263-8 (HIV)
[29] = biological target: Env of HIV isolate TH023.6 (clade AE) (HIV)
[30] = biological target: Env of HIV isolate Bal.01 (clade B) (HIV)
[31] = biological target: HIV Env of isolate 235-47 (HIV)
[32] = biological target: Env of HIV isolate 0921.v2.c14 (clade C) (HIV)
[33] = biological target: Env of HIV isolate 25711-2.4 (clade C) (HIV)
[34] = biological target: Env of HIV isolate 57128.vrc15 (clade D) (HIV)
[35] = biological target: Env of HIV isolate DU422.01 (clade C) (HIV)
[36] = biological target: HIV Env of isolate RHPA.7 (HIV)
[37] = biological target: Env of HIV isolate 3468.v1.c12 (clade AD) (HIV)
[38] = biological target: Env of HIV isolate TH976.17 (clade AE) (HIV)
[39] = biological target: HIV Env of isolate 269-12 (HIV)
[40] = biological target: Env of HIV isolate 242-14 (clade AG) (HIV)
[41] = biological target: HIV Env of isolate 271-11 (HIV)
[42] = biological target: Env of HIV isolate CNE55 (clade AE) (HIV)
[43] = biological target: HIV Env of isolate 6545.v4.c1 (HIV)
[44] = biological target: Env of HIV isolate BR07.DG (clade B) (HIV)
[45] = biological target: HIV Env of isolate 00836-2.5 (HIV)
[46] = biological target: Env of HIV isolate A03349M1.vrc4a (clade D) (HIV)
[47] = biological target: Env of HIV isolate Ce1176.A3 (clade C) (HIV)
[48] = biological target: Env of HIV isolate 6785.v5.c14 (clade C) (HIV)
[49] = biological target: Env of HIV isolate 7165.18 (clade B) (HIV)
[50] = biological target: HIV Env of isolate Q168.a2 (HIV)
[51] = biological target: Env of HIV isolate CNE21 (clade BC) (HIV)
[52] = biological target: Env of HIV isolate MI369.A5 (clade A) (HIV)
[53] = biological target: Env of HIV isolate DJ263.8 (clade AG) (HIV)

Substance: PGT121 (antibody)
- IC80 [1]: 2.02 µg/mL
- IC80, pseudovirus neutralization [2]: 18.6 µg/mL
- IC50, pseudovirus neutralization [3]: > 50 µg/mL
- IC80 [4]: > 50 µg/mL
- IC50, pseudovirus neutralization [5]: > 50 µg/mL
- IC50, pseudovirus neutralization [6]: 0.0117 µg/mL
- IC50, pseudovirus neutralization [7]: 0.654 µg/mL
- IC80 [8]: > 50 µg/mL
- IC50, pseudovirus neutralization [9]: 2.83 µg/mL
- IC80, pseudovirus neutralization [10]: 0.0127 µg/mL
- IC50, pseudovirus neutralization [11]: 0.0217 µg/mL
- IC80, pseudovirus neutralization [12]: > 50 µg/mL
- IC80 [13]: 9.02 µg/mL
- IC80, pseudovirus neutralization [14]: 0.108 µg/mL
- IC80, pseudovirus neutralization [15]: > 50 µg/mL
- IC80 [16]: 0.0597 µg/mL
- IC80 [17]: 0.202 µg/mL
- IC80, pseudovirus neutralization [18]: > 50 µg/mL
- IC50, pseudovirus neutralization [19]: 0.128 µg/mL
- IC80 [20]: 0.0283 µg/mL
- IC50, pseudovirus neutralization [21]: 0.916 µg/mL
- IC50, pseudovirus neutralization [22]: 0.00533 µg/mL
- IC80 [23]: > 50 µg/mL
- IC50, pseudovirus neutralization [24]: 0.0563 µg/mL
- IC50, pseudovirus neutralization [25]: > 50 µg/mL
- IC80 [26]: 0.639 µg/mL
- IC80 [27]: 0.162 µg/mL
- IC80 [28]: 2.5 µg/mL
- IC50, pseudovirus neutralization [29]: > 50 µg/mL
- IC50, pseudovirus neutralization [30]: 0.0113 µg/mL
- IC80 [31]: 0.614 µg/mL
- IC50, pseudovirus neutralization [32]: > 50 µg/mL
- IC50, pseudovirus neutralization [33]: 0.0173 µg/mL
- IC50, pseudovirus neutralization [34]: 1.27 µg/mL
- IC50, pseudovirus neutralization [35]: 0.062 µg/mL
- IC80 [36]: 0.093 µg/mL
- IC50, pseudovirus neutralization [37]: 0.0763 µg/mL
- IC50, pseudovirus neutralization [38]: > 50 µg/mL
- IC80 [39]: 0.627 µg/mL
- IC50, pseudovirus neutralization [40]: > 50 µg/mL
- IC80 [41]: > 50 µg/mL
- IC50, pseudovirus neutralization [42]: > 50 µg/mL
- IC80 [43]: > 50 µg/mL
- IC50, pseudovirus neutralization [44]: 0.132 µg/mL
- IC80, pseudovirus neutralization [45]: > 50 µg/mL
- IC50, pseudovirus neutralization [46]: 0.0747 µg/mL
- IC50, pseudovirus neutralization [47]: 0.0243 µg/mL
- IC50, pseudovirus neutralization [48]: 0.0503 µg/mL
- IC50, pseudovirus neutralization [49]: 0.0363 µg/mL
- IC80 [50]: > 50 µg/mL
- IC50, pseudovirus neutralization [51]: 0.0143 µg/mL
- IC50, pseudovirus neutralization [52]: 0.0507 µg/mL
- IC50, pseudovirus neutralization [53]: 0.0577 µg/mL
